These results are taken from article PMC3347535, “D-Arabinose Methabolism: Characterization of Bifunctional Arabinokinase/Pyrophosphorylase of Leishmania major” (Acta Naturae, 2009).

This series concerns O=P(O)(O)OC1OC[C@@H](O)[C@@H](O)[C@@H]1O. The experiment in a line: purified protein. As to conditions: GDP-D-Arap pyrophosphorylase reaction; GTP co-substrate; exogenous arabinose phosphate; kinetic assay conditions not given.

For orientation: Km means the concentration of substrate that gives half-maximal velocity. For the substance LmjF16.0480 (Leishmania major), the Km is reported as 67.0 mM.
